Earlier results on one substance are cited in patent US20160258855A1, “Methods and Apparatus to Determine Diffusion Properties of Porous Structures for Drug Delivery” (ForSight Vision4, Inc., priority 2010, published 2016).

For series [1] the following is noted: human eye, intravitreal, cited from earlier work.
For series [2] the following is noted: rabbit eye, intravitreal, cited from earlier work.
The conditions of series [3]: monkey eye, intravitreal, cited from earlier work.

Where two headings read alike, the source gives them in different places.

For ranibizumab [Lucentis], the half-life in vitreous result was “about nine” in series [1]; ~220 h in series [1] (listed as ranibizumab); “two to four” in series [2]; “approximately 3 days” in series [2] (listed as ranibizumab); “two to four” in series [3]; “approximately 3 days” in series [3] (listed as ranibizumab).
